Results as given in patent publication US20230192830A1.
Numbering of substitutions follows the chain as printed.

Experiments:
Details in all cases: remark: other sources report otherwise
iPHF, P10636 = test: Octet BLI, antibody on biosensor, iPHF in solution
[1] = target: T1, enriched paired helical filament tau protein (ePHF) (human), P10636; test: follow up analysis, method not stated
[2] = target: T1, enriched paired helical filament tau …; test: direct ELISA, ePHF coated

T1 sequence (P10636 other isoform, or with tags, fused parts or gaps limits assumed): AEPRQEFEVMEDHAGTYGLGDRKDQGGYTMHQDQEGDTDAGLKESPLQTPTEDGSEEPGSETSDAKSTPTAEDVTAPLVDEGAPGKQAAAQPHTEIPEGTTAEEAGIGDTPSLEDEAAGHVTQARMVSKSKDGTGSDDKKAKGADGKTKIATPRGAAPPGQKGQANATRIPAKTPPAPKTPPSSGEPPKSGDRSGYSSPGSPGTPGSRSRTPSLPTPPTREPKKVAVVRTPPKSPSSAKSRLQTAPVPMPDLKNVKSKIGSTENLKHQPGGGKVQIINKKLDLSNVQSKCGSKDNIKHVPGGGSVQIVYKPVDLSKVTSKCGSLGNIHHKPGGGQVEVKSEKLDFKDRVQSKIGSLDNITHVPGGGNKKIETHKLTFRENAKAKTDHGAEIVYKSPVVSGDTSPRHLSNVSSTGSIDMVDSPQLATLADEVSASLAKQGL
Chain of iPHF, P10636 (P10636 other isoform, or with tags, fused parts or gaps): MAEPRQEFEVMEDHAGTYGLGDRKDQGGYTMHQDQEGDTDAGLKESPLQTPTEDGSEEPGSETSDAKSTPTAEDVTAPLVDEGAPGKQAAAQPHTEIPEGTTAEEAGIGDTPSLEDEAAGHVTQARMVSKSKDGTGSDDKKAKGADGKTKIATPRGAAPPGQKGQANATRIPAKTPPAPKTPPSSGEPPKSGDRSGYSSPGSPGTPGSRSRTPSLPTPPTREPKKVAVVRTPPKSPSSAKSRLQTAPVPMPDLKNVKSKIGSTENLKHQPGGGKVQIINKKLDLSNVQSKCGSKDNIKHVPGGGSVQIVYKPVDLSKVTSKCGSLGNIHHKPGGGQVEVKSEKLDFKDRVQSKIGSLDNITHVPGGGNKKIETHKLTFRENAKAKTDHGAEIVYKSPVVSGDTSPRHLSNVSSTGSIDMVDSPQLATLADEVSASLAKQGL

B1: V0022 (antibody, mouse IgG1, V domains shown)
VH: QVQLQQPGTELVKPGSSVNLSCKASGFTFTRYWMHWVKERPGHGLEWIGNINPNNGGTDFNEKFKNKATLTVHKSSTTVFIQLSSLTSEDSAVYYCARGTGTGAMDYWGQGTSVTVSS
VL: DVVMTQTPLSLPVSLGDQASISCRSSQSLVHNNGITYLYWYLQKPGQSPKLLIYRVSNRFSGVPDRFGGSGSGTDFTLKISRVEAEDLGVYFCFQGTHVPRTFGGGTKLEIK
- Kd (iPHF, P10636): 300 pM

B2: V0023 (antibody, mouse IgG1, V domains shown)
VH: QVQLQQPGTELVKPGASVKLSCKASGYTFTIFWMHWVKQRPGHGLEWIGKINPNNGGGDYNEKFKSKATLTVDKSSTTAYLQLSSLTSEDSAVYYCARGTGTGAMDYWGQGTSVTVSS
VL: B1 VL with Q18H, N32S, Y37H, K44R, S48T, G68S, R82S, K112E
- Kd (iPHF, P10636): 4000 pM

B3: V0024 (antibody, mouse IgG1, V domains shown)
VH: B2 VH with I31R, H43Q, K50N, G58T, Y60N, K63R, K74R, T77S, L81M
VL: B1 VL with N32S, I35N, Y37H, N58S, G68S
- selectivity for ePHF over wild type tau [1]: > 100 fold
- EC50 [2]: 125 pM
